Square brackets hold non-standard residues; d marks the D form. Ends that are not written are not given here.
T1: delta opioid receptor (rat, UniProt P33533)
T1 chain: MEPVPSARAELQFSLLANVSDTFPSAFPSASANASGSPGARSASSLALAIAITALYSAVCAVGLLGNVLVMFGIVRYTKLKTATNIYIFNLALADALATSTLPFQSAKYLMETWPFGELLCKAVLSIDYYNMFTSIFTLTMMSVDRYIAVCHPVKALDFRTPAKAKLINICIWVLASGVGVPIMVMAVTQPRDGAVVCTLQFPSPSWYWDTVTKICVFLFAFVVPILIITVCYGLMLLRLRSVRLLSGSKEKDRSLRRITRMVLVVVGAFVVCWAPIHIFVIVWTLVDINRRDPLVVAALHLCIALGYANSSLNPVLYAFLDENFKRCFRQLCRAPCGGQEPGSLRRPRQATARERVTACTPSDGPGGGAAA

T2: mu opioid receptor (rat, UniProt P33535)
T2 chain: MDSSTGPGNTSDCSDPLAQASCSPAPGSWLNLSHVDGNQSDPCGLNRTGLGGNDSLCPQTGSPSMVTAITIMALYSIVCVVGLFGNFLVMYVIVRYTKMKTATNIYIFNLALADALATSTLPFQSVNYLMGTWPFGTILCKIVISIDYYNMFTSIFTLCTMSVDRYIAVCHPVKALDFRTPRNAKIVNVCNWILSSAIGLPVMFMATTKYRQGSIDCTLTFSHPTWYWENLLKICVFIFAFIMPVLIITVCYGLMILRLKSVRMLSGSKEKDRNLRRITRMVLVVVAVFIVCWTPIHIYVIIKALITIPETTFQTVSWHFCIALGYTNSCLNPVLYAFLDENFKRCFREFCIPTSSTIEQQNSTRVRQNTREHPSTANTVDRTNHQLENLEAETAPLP


Experiments:
[1] = target: T1, delta opioid receptor; test: competition, radioligand, 25C
[2] = target: T2, mu opioid receptor; test: competition, radioligand, 25C

binding result [1]	binding result [2]	Binder
no binding	no binding	YC[dF]G-NH2 (also: rhenium complex) [Tyr-Cys-D-Phe-Gly-NH2]
no binding	no binding	YG[dF]C-NH2 (also: rhenium complex) [Tyr-Gly-D-Phe-Cys-NH2]

— patent US20060083685 (published 2006)
